The target in the test is N-ethylmaleimide Sensitive Factor (NSF), Chinese hamster, full-length, His-tag cleaved, reassembled hexamer (Chinese hamster, UniProt P18708 1-744). Put plainly: cryo-EM structure.
Chain of N-ethylmaleimide Sensitive Factor (NSF), Chinese hamster, full-length, His-tag cleaved, reassembled hexamer (P18708 whole entry): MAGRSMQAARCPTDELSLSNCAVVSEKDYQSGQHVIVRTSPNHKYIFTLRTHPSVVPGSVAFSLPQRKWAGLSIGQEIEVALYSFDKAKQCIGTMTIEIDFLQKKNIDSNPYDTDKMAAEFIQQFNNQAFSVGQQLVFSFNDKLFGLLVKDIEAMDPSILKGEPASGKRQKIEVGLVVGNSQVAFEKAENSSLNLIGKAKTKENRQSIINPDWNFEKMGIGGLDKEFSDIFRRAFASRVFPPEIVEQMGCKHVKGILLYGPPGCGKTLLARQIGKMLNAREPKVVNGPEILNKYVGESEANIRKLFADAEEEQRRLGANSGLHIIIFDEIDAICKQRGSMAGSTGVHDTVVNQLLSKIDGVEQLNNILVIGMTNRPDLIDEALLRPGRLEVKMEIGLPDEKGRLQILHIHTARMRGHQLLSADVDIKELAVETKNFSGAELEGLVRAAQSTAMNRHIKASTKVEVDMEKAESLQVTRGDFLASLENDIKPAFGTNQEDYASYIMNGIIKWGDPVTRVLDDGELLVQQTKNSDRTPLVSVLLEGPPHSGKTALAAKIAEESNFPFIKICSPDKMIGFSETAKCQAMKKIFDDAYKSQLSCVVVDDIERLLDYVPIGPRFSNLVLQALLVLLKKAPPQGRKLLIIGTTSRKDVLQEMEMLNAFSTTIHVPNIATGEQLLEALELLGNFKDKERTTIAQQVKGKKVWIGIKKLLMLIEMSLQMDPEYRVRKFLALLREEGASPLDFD

B1: αSNAP (Soluble NSF Attachment Protein alpha), rat, wild type (natural protein)
chain: MDTSGKQAEAMALLAEAERKVKNSQSFFSGLFGGSSKIEEACEIYARAANMFKMAKNWSAAGNAFCQAAQLHLQLQSKHDAATCFVDAGNAFKKADPQEAINCLMRAIEIYTDMGRFTIAAKHHISIAEIYETELVDVEKAIAHYEQSADYYKGEESNSSANKCLLKVAGYAAQLEQYQKAIDIYEQVGTSAMDSPLLKYSAKDYFFKAALCHFCIDMLNAKLAVQKYEELFPAFSDSRECKLMKKLLEAHEEQNVDSYTESVKEYDSISRLDQWLTTMLLRIKKTIQGDEEDLR
In the case of B1, the binding result is recorded as “binds”.

The values above are taken from paper PMC4320033 (Nature, 2015).
